Assay results reported in patent US20180117174A1 (GANYMED PHARMACEUTICALS, published 2018).

What was measured:
[1] = target: T1, human claudin 18 splice variant 2 (CLDN18.2) (human); assay: flow cytometry (Table 6); APC-conjugated secondary antibody; binding assay 1
T1 construct: also called claudin 18 isotype 2

[2] = target: T1, human claudin 18 splice variant 2 …; assay: flow cytometry (Table 6); APC-conjugated secondary antibody; binding assay 1; normalized to IMAB362
[3] = target: human claudin 18 splice variant 1 (CLDN18.1) (human, UniProt P56856 1-261); assay: flow cytometry, HEK293 cells stably expressing CLDN18.1 (column 'CLDN18.1 reactive')
[4] = target: T1, human claudin 18 splice variant 2 …; assay: flow cytometry, HEK293 cells stably expressing CLDN18.2; APC-conjugated secondary antibody; binding assay 3
[5] = target: T1, human claudin 18 splice variant 2 …; assay: flow cytometry, HEK293 cells stably expressing CLDN18.2; APC-conjugated secondary antibody; binding assay 3; normalized to IMAB362

Row | EC50 [1] [µg/mL] | Max. binding [MFI] [1] [MFI] | EC50 normalized [%] [2] [%] | Max. binding normalized [%] [2] [%] | binding result [3] | EC50 [4] [µg/mL] | Max. binding [MFI] [4] [MFI] | EC50 normalized [%] [5] [%] | Max. binding normalized [%] [5] [%] | Binder
1 | 60 | 4390 | 10300 | 24 | – | – | – | – | – | chim mAB279 (antibody, V domains shown) VH: QVQLQQSGAELARPGASVKLSCKASGYTFTDYYINWVKQRTGQGLEWIGEIYPGSGNTYYNEKFKGKATLTADKSSSTAYMQLSSLTSEDSAVYFCARSYGAFDYWGQGTTLTVSS VL: DIVMTQSQKFMSTSVGDRVSITCKASQNVRTAVAWYQQKPGQSPKALIYLASNRHTGVPDRFTGSGSGTDFTLTISNVQSEDLADYFCLQHWNYPLTFGGGTKLEIKR
2 | – | – | – | – | no binding | 0.027 | 118 | 4 | 1 | mu mAB279 (antibody, mouse IgG2a, V domains shown, mouse IgG2a kappa) VH: QVQLQQSGAELARPGASVKLSCKASGYTFTDYYINWVKQRTGQGLEWIGEIYPGSGNTYYNEKFKGKATLTADKSSSTAYMQLSSLTSEDSAVYFCARSYGAFDYWGQGTTLTVSS VL: DIVMTQSQKFMSTSVGDRVSITCKASQNVRTAVAWYQQKPGQSPKALIYLASNRHTGVPDRFTGSGSGTDFTLTISNVQSEDLADYFCLQHWNYPLTFGGGTKLEIK
3 | – | – | – | – | no binding | 0.348 | 989 | 53 | 12 | mu mAB294 (antibody, V domains shown, Tied by its number) VH: QIQLVQSGPELKKPGETVKISCKASGYTFTNYGMNWVKQAPGKGLKWMGWINTNTGEPTYAEEFKGRFAFSLETSASTAYLQINNLKNEDTATYFCARLGFGNAMDYWGQGTSVTVSS VL: DIVMTQSPSSLTVTAGEKVTMSCKSSQSLLNSGNQKNYLTWYQQKPGQPPKLLIYWASTRESGVPDRFTGSGSGTDFTLTISSVQAEDLAVYYCQNDYSYPLTFGAGTKLELK
4 | 32.3 | 4080 | 5540 | 22 | – | – | – | – | – | chim mAB62 (antibody, V domains shown) VH: QVQLQQSGAELMKPGASVKISCKATGYTFSSYWIEWVKQRPGHGLEWIGEILPGSGSTNYNEKFKGKATFTADTSSNTAYMQLSSLTSEDSAVYYCARYDYPWFAYWGQGTLVTVSA VL: QIVLTQSPAIMSASPGEKVTITCSASSSVSYMHWFQQKPGTSPKLWIYSTSNLASGVPARFSGSGSGTSYSLTISRMEAEDAATYYCQQRSSYPPTFGGGTKLEIKR
5 | – | – | – | – | no binding | 27.9 | 2800 | 4280 | 35 | mu mAB62 (antibody, mouse IgG2a, V domains shown, mouse IgG2a kappa) VH: QVQLQQSGAELMKPGASVKISCKATGYTFSSYWIEWVKQRPGHGLEWIGEILPGSGSTNYNEKFKGKATFTADTSSNTAYMQLSSLTSEDSAVYYCARYDYPWFAYWGQGTLVTVSA VL: QIVLTQSPAIMSASPGEKVTITCSASSSVSYMHWFQQKPGTSPKLWIYSTSNLASGVPARFSGSGSGTSYSLTISRMEAEDAATYYCQQRSSYPPTFGGGTKLEIK
6 | 18.9 | 15000 | 3240 | 81 | – | – | – | – | – | chim mAB308 (antibody, V domains shown) VH: QVQLQQSGPELVKPGASVKMSCKASGYTFTDYVISWVKQRTGQGLEWIGEIYPGSGSTYYNEKFKGKATLTADKSSNTAYMQLSSLTSEDSAVYFCARGVLLRAMDYWGQGTSVTVSS VL: DIVMSQSPSSLAVSAGEKVTMSCKSSQSLLNSRTRKNYLAWYQQKPGQSPKLLIYWASTRESGVPDRFTGSGSGTDFTLTISSVQAEDLAVYYCKQSYNLYTFGGGTKLEIKR
